Results reported in publication PMC10512297, “The Penicillium chrysogenum tom1 Gene a Major Target of Transcription Factor MAT1-1-1 Encodes a Nuclear Protein Involved in Sporulation”.

Tests used:
[1] = molecular target: T1, GST-MAT1-1-1;GST-MAT1-2-1 (Penicillium chrysogenum;Penicillium …, UniProt B1GVB9;B1GVC0 1-342;1-303, |); assay: EMSA; 4 uM each protein; slower migrating complex; EMSA: 20 ul reaction, 20 min at room temperature, native 4% polyacrylamide gel, 120 V 2-3 h; buffer, salt and pH not given (Ramsak et al. 2021 protocol); conditions: protein: recombinant;recombinant; tags: N-terminal GST;N-terminal GST; label: 32P (probe); blunt
T1 sequence 1: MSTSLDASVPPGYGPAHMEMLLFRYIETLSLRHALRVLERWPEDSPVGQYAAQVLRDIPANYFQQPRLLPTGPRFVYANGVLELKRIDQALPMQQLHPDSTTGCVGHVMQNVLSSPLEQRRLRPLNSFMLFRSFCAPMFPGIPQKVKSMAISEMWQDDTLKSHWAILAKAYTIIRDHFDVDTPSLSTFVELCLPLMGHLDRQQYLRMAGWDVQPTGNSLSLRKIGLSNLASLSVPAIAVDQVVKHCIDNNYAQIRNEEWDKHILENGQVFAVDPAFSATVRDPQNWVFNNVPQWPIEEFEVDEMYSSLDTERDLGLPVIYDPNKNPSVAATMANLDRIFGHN
T1 sequence 2: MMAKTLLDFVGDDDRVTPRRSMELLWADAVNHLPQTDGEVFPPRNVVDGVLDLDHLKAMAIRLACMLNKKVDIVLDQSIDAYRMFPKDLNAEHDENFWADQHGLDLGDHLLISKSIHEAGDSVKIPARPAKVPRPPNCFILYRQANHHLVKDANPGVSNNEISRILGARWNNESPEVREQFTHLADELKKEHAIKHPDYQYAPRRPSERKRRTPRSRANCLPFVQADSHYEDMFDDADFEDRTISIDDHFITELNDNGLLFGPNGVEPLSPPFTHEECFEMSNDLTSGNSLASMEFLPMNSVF

[2] = molecular target: T2, GST-MAT1-1-1 (Penicillium chrysogenum, UniProt B1GVB9 1-342); assay: EMSA; 2.5 uM protein; self-competition by unlabelled tom1-2; EMSA: 20 ul reaction, 20 min at room temperature, native 4% polyacrylamide gel, 120 V 2-3 h; buffer, salt and pH not given (Ramsak et al. 2021 protocol); conditions: protein: recombinant; tags: N-terminal GST; chain copies: 2; label: 32P (probe); blunt
T2 sequence: T1 sequence 1

[3] = molecular target: T3, GST-MAT1-1-1;MAT1-2-1 (GST removed) (Penicillium chrysogenum;Penicillium …, UniProt B1GVB9;B1GVC0 1-342;1-303, |); assay: EMSA; 4 uM each protein; complex faster than with GST-MAT1-2-1; EMSA: 20 ul reaction, 20 min at room temperature, native 4% polyacrylamide gel, 120 V 2-3 h; buffer, salt and pH not given (Ramsak et al. 2021 protocol); conditions: protein: recombinant;recombinant; tags: N-terminal GST;none (GST removed by TEV protease); label: 32P (probe); blunt
T3 sequence 1: T1 sequence 1
T3 sequence 2: T1 sequence 2

[4] = molecular target: T4, GST-MAT1-2-1 (Penicillium chrysogenum PC3, UniProt B1GVC0 1-303); assay: EMSA; 7 uM protein; more protein needed than for GST-MAT1-1-1; self-competition by unlabelled tom1-2; EMSA: 20 ul reaction, 20 min at room temperature, native 4% polyacrylamide gel, 120 V 2-3 h; buffer, salt and pH not given (Ramsak et al. 2021 protocol); conditions: protein: recombinant; tags: N-terminal GST; label: 32P (probe); blunt
T4 sequence: T1 sequence 2

Measured: binding result

B1: tom1-2 (dsDNA)
DNA 1: TCACGTGATCTCTATTGAGAACAATAGAA
DNA 2: TTCTATTGTTCTCAATAGAGATCACGTGA
binds: all assays above
